9 substances from paper PMC3655264, “A Large-Scale Conformational Change Couples Membrane Recruitment to Cargo Binding in the AP2 Clathrin Adaptor Complex” (Cell, 2010) can be followed below.

One may read the Kd as the free concentration of one partner at which half of the binding sites on the other are occupied at equilibrium, for simple one-to-one binding. As a reminder, the koff is the first-order rate constant of dissociation. As a reminder, the kon is a measure of how fast the partners come together. A high value points to faster complex formation.

For test [1], the target named is lipid-linked TGN38 sorting motif peptide (…) displayed in liposomes. The test is described as follows: SPR. The settings on record: for Kd: 10% PtdIns4,5P2 + 1% TGN38 liposomes, five AP2 concentrations ranging from 50 nM to 1 μM.
In test [2] the target is lipid-linked phosphorylated CD4 dileucine sorting signal peptide (…(SP)…) displayed in liposomes. Nature of the test: SPR. The settings on record: for Kd: 10% PtdIns4,5P2 + 1% CD4P liposomes, five AP2 concentrations ranging from 50 nM to 1 μM.
Test [3] concerns the target liposomes displaying both TGN38 YxxΦ peptide (m4) and CD4 dileucine peptide (m5). The test is described as follows: SPR. Conditions: 10% PtdIns4,5P2 + 0.5% TGN38 + 0.5% CD4 liposomes; five AP2 concentrations ranging from 50 nM to 1 μM.
Test [4] addresses liposomes containing 10% PtdIns4,5P2 (no cargo peptide). The test is described as follows: SPR. The settings on record: 10% PtdIns4,5P2 liposomes; five AP2 concentrations ranging from 50 nM to 1 μM.
In test [5] the target is fluorescein-labeled TGN38 YxxΦ peptide (ASDYQRL). Nature of the test: fluorescence polarisation; stopped-flow polarized fluorescence, pre-steady-state kinetics; AP2 preincubated for 30 min with 200 μM heparin; 1 μM fluorescein peptide.
The target is the same in test [6]. Nature of the test: fluorescence polarisation; equilibrium anisotropy titration with 500 μM polymeric heparin (~50 subunits); 20 nM fluorescein peptide; 21°C; 10 mM Tris pH 8.7, 250 mM NaCl.
Test [7] shares this target. The test is described as follows: fluorescence polarisation; stopped-flow polarized fluorescence, pre-steady-state kinetics, without heparin; 1 μM fluorescein peptide, protein at pseudo-first order excess; single exponential fits, kapp = koff + kon.C.
The target of test [8] is lipid-linked TGN38 sorting motif peptide (…) displayed in liposomes. Nature of the test: SPR; peptido-liposomes with 10% PtdIns4,5P2 and lipid-linked peptide captured on an L1 sensor surface (BIAcore 3000, T100); AP2 cores injected; 10 mM Tris pH 8.7, 250 mM NaCl, 1 mM DTT; corrected for binding to PC/PE or PtdIns4,5P2 liposomes; apparent. On the technique in general: Surface plasmon resonance follows binding to a sensor surface in real time, without labels.

For test [9], the target named is lipid-linked phosphorylated CD4 dileucine sorting signal peptide (…(SP)…) displayed in liposomes. The test is described as above.
Target sequence in this assay (peptide, as listed by the source): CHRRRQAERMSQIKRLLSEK
In test [10] the target is lipid-linked TGN38 sorting motif peptide (…) displayed in liposomes. Nature of the test: not stated; unpublished data (S.H.); binding of AP2 cores to YxxΦ/PtdIns4,5P2-containing liposomes.

Sequence of AP2 core (recombinant; α trunk, β2 trunk, myc-tagged μ2, σ2) (from UniProt P63010;P84092;P62743) μ2PIP- (μ2 5K>E and μ2 KRR>E combined; individual residues not printed) (P62743 whole entry, looked up, change not shown): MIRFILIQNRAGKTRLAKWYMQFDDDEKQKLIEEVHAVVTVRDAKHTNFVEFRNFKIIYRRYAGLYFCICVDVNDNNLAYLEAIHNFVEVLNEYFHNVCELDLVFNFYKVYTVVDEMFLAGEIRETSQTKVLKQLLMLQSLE
Sequence of AP2 core (recombinant; α trunk, β2 trunk, myc-tagged μ2, σ2) (from UniProt P63010;P84092;P62743) μ2PIP- (μ2 5K>E and μ2 KRR>E combined; individual residues not printed) (P84092 whole entry, looked up, change not shown): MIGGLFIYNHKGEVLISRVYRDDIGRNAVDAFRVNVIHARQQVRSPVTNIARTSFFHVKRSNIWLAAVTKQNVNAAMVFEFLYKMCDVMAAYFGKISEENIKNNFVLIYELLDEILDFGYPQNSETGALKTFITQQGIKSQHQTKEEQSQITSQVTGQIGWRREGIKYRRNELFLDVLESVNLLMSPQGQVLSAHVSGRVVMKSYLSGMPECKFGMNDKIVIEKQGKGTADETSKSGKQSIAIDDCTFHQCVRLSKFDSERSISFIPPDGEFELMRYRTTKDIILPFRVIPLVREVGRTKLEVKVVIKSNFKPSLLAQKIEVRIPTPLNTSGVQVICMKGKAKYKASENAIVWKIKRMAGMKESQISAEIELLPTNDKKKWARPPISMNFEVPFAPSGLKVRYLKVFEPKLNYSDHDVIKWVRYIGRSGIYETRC
Sequence of AP2 core (recombinant; α trunk, β2 trunk, myc-tagged μ2, σ2) (from UniProt P63010;P84092;P62743) μ2PIP- (μ2 5K>E and μ2 KRR>E combined; individual residues not printed) (P63010 whole entry, looked up, change not shown): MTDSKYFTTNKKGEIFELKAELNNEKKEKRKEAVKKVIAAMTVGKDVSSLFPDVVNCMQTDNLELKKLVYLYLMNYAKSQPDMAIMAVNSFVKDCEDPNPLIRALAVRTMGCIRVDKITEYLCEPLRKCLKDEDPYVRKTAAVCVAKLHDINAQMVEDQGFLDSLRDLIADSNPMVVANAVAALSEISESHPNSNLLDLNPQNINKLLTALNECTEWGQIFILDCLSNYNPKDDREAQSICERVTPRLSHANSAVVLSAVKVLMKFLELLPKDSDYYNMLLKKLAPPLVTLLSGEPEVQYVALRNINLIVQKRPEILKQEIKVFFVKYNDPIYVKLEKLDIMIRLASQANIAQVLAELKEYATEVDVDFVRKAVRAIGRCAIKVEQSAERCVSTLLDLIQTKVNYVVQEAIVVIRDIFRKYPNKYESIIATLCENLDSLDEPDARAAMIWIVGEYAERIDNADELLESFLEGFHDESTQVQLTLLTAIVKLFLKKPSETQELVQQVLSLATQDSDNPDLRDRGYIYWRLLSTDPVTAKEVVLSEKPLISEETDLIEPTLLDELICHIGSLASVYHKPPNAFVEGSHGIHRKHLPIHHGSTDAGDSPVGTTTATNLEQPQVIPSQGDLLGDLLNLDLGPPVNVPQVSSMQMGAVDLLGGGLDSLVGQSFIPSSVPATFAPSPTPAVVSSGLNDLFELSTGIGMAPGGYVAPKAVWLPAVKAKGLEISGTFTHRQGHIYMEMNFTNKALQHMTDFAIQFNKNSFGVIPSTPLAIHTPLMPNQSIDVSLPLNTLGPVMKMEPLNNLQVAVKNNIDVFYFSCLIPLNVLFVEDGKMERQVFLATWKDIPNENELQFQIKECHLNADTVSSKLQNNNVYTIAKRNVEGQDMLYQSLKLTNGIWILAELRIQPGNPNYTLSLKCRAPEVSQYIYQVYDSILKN
Sequence of AP2 core (recombinant; α trunk, β2 trunk, myc-tagged μ2, σ2) (from UniProt P63010;P84092;P62743) αPIP- (substitutions in the PtdIns4,5P2-binding site of α; not printed) (P62743 whole entry, looked up, stated change not applied): as the sequence (P62743 whole entry, looked up, change not shown) above
Sequence of AP2 core (recombinant; α trunk, β2 trunk, myc-tagged μ2, σ2) (from UniProt P63010;P84092;P62743) αPIP- (substitutions in the PtdIns4,5P2-binding site of α; not printed) (P84092 whole entry, looked up, stated change not applied): as the sequence (P84092 whole entry, looked up, change not shown) above
Sequence of AP2 core (recombinant; α trunk, β2 trunk, myc-tagged μ2, σ2) (from UniProt P63010;P84092;P62743) αPIP- (substitutions in the PtdIns4,5P2-binding site of α; not printed) (P63010 whole entry, looked up, stated change not applied): as the sequence (P63010 whole entry, looked up, change not shown) above
Sequence of μ2^PIP-Core (AP2 core with the μ2 mutations 5K>E and KRR>E combined) (P62743 whole entry, looked up, change not shown): as the sequence (P62743 whole entry, looked up, change not shown) above
Sequence of μ2^PIP-Core (AP2 core with the μ2 mutations 5K>E and KRR>E combined) (P84092 whole entry, looked up, change not shown): as the sequence (P84092 whole entry, looked up, change not shown) above
Sequence of μ2^PIP-Core (AP2 core with the μ2 mutations 5K>E and KRR>E combined) (P63010 whole entry, looked up, change not shown): as the sequence (P63010 whole entry, looked up, change not shown) above
Sequence of AP2 core (recombinant; α trunk, β2 trunk, myc-tagged μ2, σ2) (from UniProt P63010;P84092;P62743) β2:K5E; β2:K12E; β2:K26E; β2:K27E; β2:K29E; β2:K36E (P62743 whole entry, looked up, stated change not applied): as the sequence (P62743 whole entry, looked up, change not shown) above
Sequence of AP2 core (recombinant; α trunk, β2 trunk, myc-tagged μ2, σ2) (from UniProt P63010;P84092;P62743) β2:K5E; β2:K12E; β2:K26E; β2:K27E; β2:K29E; β2:K36E (P84092 whole entry, looked up, stated change not applied): as the sequence (P84092 whole entry, looked up, change not shown) above
Sequence of AP2 core (recombinant; α trunk, β2 trunk, myc-tagged μ2, σ2) (from UniProt P63010;P84092;P62743) β2:K5E; β2:K12E; β2:K26E; β2:K27E; β2:K29E; β2:K36E (P63010 whole entry, looked up, stated change not applied): as the sequence (P63010 whole entry, looked up, change not shown) above

In the case of “AP2 core (recombinant; α trunk, β2 trunk, myc-tagged μ2, σ2) (from UniProt P63010;P84092;P62743) αPIP- (substitutions in the PtdIns4,5P2-binding site of α; not printed)”, the response in test [1] (200 nM AP2 core, PtdIns4,5P2/TGN38 liposomes, corrected for non-specific binding to PC/PE liposomes, baseline about 80 RU, parent: est. 1800, read off a plot) came to 330 RU; in test [2] (200 nM AP2 core, PtdIns4,5P2/CD4P liposomes, corrected for non-specific binding to PC/PE liposomes, baseline about 40 RU, parent: est. 1400, read off a plot), 180 RU. In addition, the Kd in test [1] and in [3] was above 30 µM each time.

Take “AP2 core (recombinant; α trunk, β2 trunk, myc-tagged μ2, σ2) (from UniProt P63010;P84092;P62743) μ2 KRR>E (three basic residues of the third basic region of C-μ2 to glutamate; residues not printed)”: the dissociation constant (Kd) in [1] turned out to be 0.33 µM; in test [2], 0.85 µM; in [4] it was 7.5 µM.

On to “AP2 core (recombinant; α trunk, β2 trunk, myc-tagged μ2, σ2) (from UniProt P63010;P84092;P62743) β2:K5E; β2:K12E; β2:K26E; β2:K27E; β2:K29E; β2:K36E”, for which the Kd in [3] is above 30 µM.

For the substance “AP2 core (recombinant; α trunk, β2 trunk, myc-tagged μ2, σ2) (from UniProt P63010 1-592; P84092 1-236; P84092 237-435; P62743 1-142) (complex)”, in test [5], the Kd was 3.5 µM, the koff is 2 s⁻¹, the kon came out at 1e+06 M⁻¹ s⁻¹ and the relaxation time at 15 μM AP2 with heparin was 0.059 s. Besides, the relaxation time with heparin in [5] was 0.056 s. In test [6], this substance gave a Kd of 3.4 µM. For the same substance, in test [7], the Kd came out at 4000 µM and the relaxation time at 30 μM AP2 without heparin turned out to be 62.5 s.

With “isolated C-terminal domain of μ2 (C-μ2) (from UniProt P84092 1-435) (domain or fragment)”, in [7], the Kd amounted to 0.5 µM and the relaxation time at 15 μM C-μ2 amounted to 0.0073 s.

With “AP2 core (recombinant; α trunk, β2 trunk, myc-tagged μ2, σ2) (from UniProt P63010;P84092;P62743) μ2 5K>E (five lysines of the second basic region of C-μ2 to glutamate; residues not printed)”, the Kd came out at 0.52 µM in [1], 0.95 µM in test [2] and 11 µM in test [4].

With “μ2^PIP-Core (AP2 core with the μ2 mutations 5K>E and KRR>E combined) (from UniProt P63010 1-592; P84092 1-236; P84092 237-435; P62743 1-142) (complex)”, the fold inhibition of binding to PtdIns4,5P2/YxxΦ liposomes against the wild-type core in test [8] came to 20 fold. The fold reduction of binding to PtdIns4,5P2/[ED]xxxL[LI] liposomes against the wild-type core in test [9] was found to be 3 fold.

For “AP2 core (recombinant; α trunk, β2 trunk, myc-tagged μ2, σ2) (from UniProt P63010;P84092;P62743) μ2PIP- (μ2 5K>E and μ2 KRR>E combined; individual residues not printed)”, the Kd in [1] came to 6.2 µM; in test [2] it was 2.5 µM; in [4] it was 30 µM; in test [3], 0.28 µM.

With “μ2Thr156Glu AP2 core (from UniProt P63010 1-592; P84092 1-236; P84092 237-435; P62743 1-142) (complex)”, in test [10], the fold less binding than phosphorylated AP2 core came out at 20 fold and the fold weaker binding than wild-type core was 4 fold.
